This data set concerns the molecule itself. Nature of the data set: SEC; HiLoad 16/600 Superdex 75 pg in PBS or 20 mM sodium phosphate, 200 μM EDTA pH 8; oligomeric state verified in Supporting Figure S2 (method not shown). On the technique in general: Size exclusion chromatography separates by hydrodynamic size, large species first.

Data on one protein can be found in article PMC12447514, “Modulation of Amyloid‑β Aggregation by Surface Proteins from Pathogens Associated with Alzheimer’s Disease” (ACS Chemical Neuroscience, 2025).

B1: Borrelia burgdorferi outer surface protein C (residues 11-191) (natural protein)
chain: ASTNPDESAKGPNLTEISKKITDSNAVVLAVKEVEALLSSIDELAKTIGKKIEANGLGNEADKNGSLLAGAYAISTLIKQKLDGLKGLEGLNKEIAEAKKCSEAFTKKLQDSNADLGKHNATDADSKEAILKTNGTKTKGAKELEELFKSVESLSKAAKEALSNSVKELTSPVVAESPKKP
notes: outer surface protein C of Borrelia burgdorferi sensu lato, UniProt P94245, residues 11-191; the N-terminal signal peptide was replaced by His-tagged polyubiquitin-B and a TEV protease cleavage site; also called OspC; Bb outer surface protein C; not shown: polyubiquitin-B with C-terminal His-tag (UniProt J3QS39), N-terminal, cleaved
In the case of B1, the stoichiometry N (in general, the number of molecules, sites or subunits per partner or assembly) is 2.
